Experimental data from the Immune Epitope Database (IEDB).

Tests used:
[1] = molecular target: HLA-A*01:01; assay: IEDB peptide-MHC binding, purified MHC/competitive/fluorescence; filed as Kd, often an IC50 or EC50 that approximates it; ≥ and ≤ were set here for values at or beyond the usual limits of such assays
[2] = molecular target: HLA-B*35:01; assay: as above
[3] = molecular target: HLA-B*18:01; assay: IEDB peptide-MHC binding, purified MHC/competitive/radioactivity; filed as Kd, often an IC50 or EC50 that approximates it; ≥ and ≤ were set here for values at or beyond the usual limits of such assays
[4] = molecular target: HLA-B*44:03; assay: as above
[5] = molecular target: HLA-B*45:01; assay: as above
[6] = molecular target: HLA-B*44:02; assay: as above
[7] = molecular target: HLA-B*40:02; assay: as above
[8] = molecular target: HLA-B*40:01; assay: as above
[9] = molecular target: HLA-B*15:01; assay: IEDB peptide-MHC binding, purified MHC/direct/fluorescence; filed as Kd, often an IC50 or EC50 that approximates it; ≥ and ≤ were set here for values at or beyond the usual limits of such assays
[10] = molecular target: HLA-A*11:01; assay: as above
[11] = molecular target: HLA-B*15:09; assay: as above
[12] = molecular target: HLA-B*46:01; assay: as above
[13] = molecular target: HLA-A*01:01; assay: as above
[14] = molecular target: HLA-B*27:05; assay: as above
[15] = molecular target: HLA-A*69:01; assay: as above
[16] = molecular target: HLA-A*03:01; assay: as above
[17] = molecular target: HLA-B*44:02; assay: as above
[18] = molecular target: HLA-B*40:01; assay: as above
[19] = molecular target: HLA-B*08:02; assay: as above
[20] = molecular target: HLA-A*31:01; assay: as above
[21] = molecular target: HLA-B*58:01; assay: as above
[22] = molecular target: HLA-B*07:02; assay: as above
[23] = molecular target: HLA-A*02:01; assay: as above
[24] = molecular target: HLA-B*08:01; assay: as above
[25] = molecular target: HLA-A*26:01; assay: as above
[26] = molecular target: HLA-A*24:02; assay: as above
[27] = molecular target: HLA-B*15:01; assay: IEDB peptide-MHC binding, purified MHC/competitive/fluorescence; ≥ and ≤ were set here for values at or beyond the usual limits of such assays
[28] = molecular target: HLA-A*02:01; assay: as above; conditions: source organism: Zaire ebolavirus
[29] = molecular target: HLA-A*24:02; assay: as above
[30] = molecular target: HLA-A*11:01; assay: as above; conditions: source organism: Vaccinia virus Copenhagen
[31] = molecular target: HLA-B*18:01; assay: IEDB peptide-MHC binding, purified MHC/direct/fluorescence; filed as Kd, often an IC50 or EC50 that approximates it; ≥ and ≤ were set here for values at or beyond the usual limits of such assays
[32] = molecular target: HLA-B*15:01; assay: IEDB peptide-MHC binding, purified MHC/competitive/fluorescence; filed as Kd, often an IC50 or EC50 that approximates it; ≥ and ≤ were set here for values at or beyond the usual limits of such assays; conditions: source organism: Yersinia pestis Nepal516
[33] = molecular target: HLA-A*03:01; assay: as above; conditions: source organism: Yersinia pestis Nepal516
[34] = source organism: Bacillus anthracis str. A2012
[35] = source organism: SARS coronavirus Tor2
[36] = source organism: Influenza A virus (A/mallard/NZ/1/97(H5N2))
[37] = source organism: Influenza A virus(A/swine/Shandong/fZC/2003(H9N2))
[38] = source organism: Mammarenavirus juninense
[39] = source organism: Zaire ebolavirus
[40] = source organism: Influenza A virus (A/Puerto Rico/8/34/Mount Sinai(H1N1))
[41] = source organism: Influenza A virus (A/equine/New York/1/1999(H3N8))
[42] = source organism: Influenza A virus(A/swine/Shandong/fNY/2003(H9N2))
[43] = source organism: Vaccinia virus Copenhagen
[44] = source organism: Mammarenavirus lassaense
[45] = source organism: Giardia lamblia ATCC 50803
[46] = source organism: Influenza A virus (A/chicken/Hubei/wk/1997(H5N1))
[47] = source organism: Yersinia pestis Nepal516
[48] = source organism: Lymphocytic choriomeningitis virus (strain Armstrong)

With ITTFFTFAY the Kd [1, 34] was 0.14 µM and the Kd [2, 34] was 0.192 µM.
HSNASTLLY was tested, and the Kd ([1]; source organism: Staphylococcus aureus subsp. aureus N315) was 0.0025 µM.
PEFYEAMYT showed a Kd [3, 35] of at least 52.4 µM, a Kd [4, 35] of 4.91 µM and a Kd [5, 35] of 3.4 µM. For the same sequence, the Kd [6, 35] was 17.4 µM, the Kd [7, 35] was 5.05 µM and the Kd [8, 35] was 3.74 µM.
In the case of IAGFIEGGW, the Kd [9, 36] is reported as at least 20 µM, the Kd [10, 36] is reported as at least 20 µM and the Kd [11, 37] is reported as at least 20 µM. It also gave a Kd [12, 36] of at least 20 µM, a Kd [13, 36] of at least 20 µM and a Kd [14, 36] of at least 20 µM. It also gave a Kd [15, 36] of at least 20 µM, a Kd [16, 36] of at least 20 µM and a Kd [17, 36] of at least 20 µM. The Kd [18, 36] was at least 20 µM, the Kd [19, 37] was at least 20 µM and the Kd [20, 36] was at least 20 µM. It also gave a Kd [21, 36] of 0.0654 µM, a Kd [22, 36] of at least 20 µM and a Kd [23, 36] of at least 20 µM. For the same sequence, the Kd [24, 36] was at least 20 µM, the Kd [25, 37] was at least 20 µM and the Kd [26, 36] was at least 20 µM.
Work on KDTPGGYCL yielded a Kd [3, 38] of at least 61 µM, a Kd [4, 38] of at least 78.1 µM and a Kd [5, 38] of 18.3 µM. It also gave a Kd [6, 38] of at least 77.9 µM, a Kd [7, 38] of 3.48 µM and a Kd [8, 38] of 11.9 µM.
In the case of WASRELERF, the Kd ([2]; source organism: Human immunodeficiency virus 1) is reported as 0.0568 µM and the Kd ([21]; source organism: Human immunodeficiency virus type 1 BH10) is reported as 0.0275 µM.
VKYLEGHGF showed an IC50 [27, 39] of at least 72.1 µM, an IC50 [28] of at least 160 µM and an IC50 [29, 39] of 14.4 µM.
YQATGFGTN was tested, and the IC50 [27, 39] was 22.7 µM, the IC50 [28] was at least 146 µM and the IC50 [29, 39] was at least 231 µM.
For VAGGTSSVY, the Kd ([2]; source organism: Influenza A virus (A/quail/Hong Kong/SF550/00(H6N1))) was 0.0109 µM, the Kd [9, 40] was 0.129 µM and the Kd [10, 41] was at least 20 µM. It also gave a Kd [11, 42] of at least 20 µM, a Kd [13, 41] of at least 20 µM and a Kd [14, 41] of at least 20 µM. For the same sequence, the Kd [15, 41] was at least 20 µM, the Kd [16, 41] was at least 20 µM and the Kd [18, 41] was at least 20 µM. For the same sequence, the Kd [20, 41] was at least 20 µM, the Kd [21, 41] was 2.89 µM and the Kd [22, 41] was at least 20 µM. It also gave a Kd [23, 41] of at least 20 µM, a Kd [24, 41] of at least 20 µM and a Kd [26, 41] of at least 20 µM.
In the case of SEQSLRLVDA, the Kd [3, 35] is reported as 3.61 µM, the Kd [4, 35] is reported as 0.436 µM and the Kd [5, 35] is reported as 0.00586 µM. It also gave a Kd [6, 35] of 0.0916 µM, a Kd [7, 35] of 0.47 µM and a Kd [8, 35] of 18.7 µM.
For EELSMMYESL, the Kd [3, 38] was 1.34 µM, the Kd [4, 38] was 1.85 µM and the Kd [5, 38] was 1.9 µM. The Kd [6, 38] was 1.48 µM, the Kd [7, 38] was 0.106 µM and the Kd [8, 38] was 0.899 µM.
Work on AEAAVKPLLA yielded a Kd [3, 35] of at least 55.5 µM, a Kd [4, 35] of 0.0356 µM and a Kd [5, 35] of 0.0106 µM. It also gave a Kd [6, 35] of 0.105 µM, a Kd [7, 35] of at least 20.1 µM and a Kd [8, 35] of 0.164 µM.
Sequence QAFEAGVDF has an IC50 [27, 39] of 30.6 µM, an IC50 [28] of at least 475 µM and an IC50 [29, 39] of 29.4 µM.
In the case of SQMTSTFIM, the IC50 [27, 43] is reported as 1.75 µM, the IC50 [30] is reported as 1.59 µM and the IC50 [29, 43] is reported as 2.16 µM.
For LESLWAPFGV, the Kd [3, 38] was 0.607 µM, the Kd [4, 38] was at least 56.4 µM and the Kd [5, 38] was 16.1 µM. It also gave a Kd [6, 38] of at least 31.8 µM, a Kd [7, 38] of 0.159 µM and a Kd [8, 38] of at least 24.6 µM.
Sequence AEWVLAYML has a Kd [3, 35] of 0.418 µM, a Kd [4, 35] of 0.00504 µM and a Kd [5, 35] of 0.0365 µM. The Kd [6, 35] was 0.0139 µM, the Kd [7, 35] was 0.00402 µM and the Kd [8, 35] was 0.00475 µM.
SDLDMLTQS showed a Kd [3, 44] of at least 77.5 µM, a Kd [4, 44] of at least 78.1 µM and a Kd [5, 44] of at least 77.7 µM. The Kd [6, 44] was at least 42.2 µM, the Kd [7, 44] was 6.1 µM and the Kd [8, 44] was at least 24.7 µM.
Sequence YIASIFMPR has a Kd [31, 45] of at least 20 µM, a Kd [9, 45] of at least 20 µM and a Kd [10, 45] of 0.0448 µM. For the same sequence, the Kd [11, 45] was at least 20 µM, the Kd [13, 45] was at least 20 µM and the Kd [14, 45] was at least 20 µM. The Kd [15, 45] was at least 20 µM, the Kd [16, 45] was 0.335 µM and the Kd [17, 45] was at least 20 µM. The Kd [18, 45] was at least 20 µM, the Kd [19, 45] was at least 20 µM and the Kd [20, 45] was 0.011 µM. For the same sequence, the Kd [21, 45] was at least 20 µM, the Kd [22, 45] was at least 20 µM and the Kd [26, 45] was at least 20 µM.
For NPALRMKWM, the Kd [31, 46] was at least 20 µM, the Kd [9, 46] was at least 20 µM and the Kd [10, 46] was at least 20 µM. The Kd [11, 42] was at least 20 µM, the Kd [12, 46] was at least 20 µM and the Kd [13, 46] was at least 20 µM. It also gave a Kd [14, 46] of at least 20 µM, a Kd [15, 46] of at least 20 µM and a Kd [16, 46] of at least 20 µM. It also gave a Kd [17, 46] of at least 20 µM, a Kd [18, 46] of at least 20 µM and a Kd [19, 42] of at least 20 µM. For the same sequence, the Kd [20, 46] was at least 20 µM, the Kd [21, 46] was at least 20 µM and the Kd [22, 40] was 0.091 µM. It also gave a Kd [23, 46] of at least 20 µM, a Kd [24, 40] of 1.41 µM and a Kd [25, 42] of at least 20 µM. It also gave a Kd [26, 46] of at least 20 µM.
Work on CLLSHTLAY yielded a Kd [32] of 0.225 µM, a Kd [1, 47] of 1.06 µM and a Kd [33] of 0.0643 µM. The Kd [2, 47] was 0.0246 µM.
Work on VETVSLAGSY yielded a Kd [3, 35] of 1.68 µM, a Kd [4, 35] of 1.29 µM and a Kd [5, 35] of 11.7 µM. For the same sequence, the Kd [6, 35] was 3.22 µM, the Kd [7, 35] was at least 70.8 µM and the Kd [8, 35] was 17.7 µM.
IEVALRTLL gave a Kd [3, 48] of 0.0772 µM, a Kd [4, 48] of 3.73 µM and a Kd [5, 48] of 18.3 µM. For the same sequence, the Kd [6, 48] was 14.6 µM, the Kd [7, 48] was 0.0549 µM and the Kd [8, 48] was 0.0644 µM.
With KLTEAITAA the IC50 [27, 39] was at least 171 µM and the IC50 [28] was 2.05 µM.
For AEYKLQQGTF, the Kd [3, 35] was 7.04 µM, the Kd [4, 35] was 0.0896 µM and the Kd [5, 35] was 0.0623 µM. The Kd [6, 35] was 0.0288 µM, the Kd [7, 35] was 0.02 µM and the Kd [8, 35] was 4.58 µM.
